From article PMC10397247

Assays:
Assay in all cases: two-hybrid library CCNG1;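 note: natural log of median RNA to DNA barcode read ratio; higher means stronger binding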
[1] = target: T1, 4H717-bH
T1 chain: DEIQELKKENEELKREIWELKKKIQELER

[2] = target: T2, 4H4001-bH
T2 chain: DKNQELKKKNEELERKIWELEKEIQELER

[3] = target: T3, 4H3189-bH
T3 chain: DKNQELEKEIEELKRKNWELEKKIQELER

[4] = target: T4, 4H967-bH
T4 chain: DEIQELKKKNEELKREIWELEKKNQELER

[5] = target: T5, 4H568-bH
T5 chain: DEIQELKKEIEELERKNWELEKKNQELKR

[6] = target: T6, 4H918-bH
T6 chain: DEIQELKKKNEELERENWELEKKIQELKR

[7] = target: T7, 4H3185-bH
T7 chain: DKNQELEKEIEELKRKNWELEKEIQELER

[8] = target: T8, 4H754-bH
T8 chain: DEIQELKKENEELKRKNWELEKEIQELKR

[9] = target: T9, 4H72-bH
T9 chain: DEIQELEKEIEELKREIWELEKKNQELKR

[10] = target: T10, 4H462-bH
T10 chain: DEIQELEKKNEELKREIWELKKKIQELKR

[11] = target: T11, 4H953-bH
T11 chain: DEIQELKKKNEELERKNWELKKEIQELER

[12] = target: T12, 4H3112-bH
T12 chain: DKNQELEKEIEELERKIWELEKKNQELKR

[13] = target: T13, 4H3354-bH
T13 chain: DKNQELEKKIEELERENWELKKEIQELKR

[14] = target: T14, 4H370-bH
T14 chain: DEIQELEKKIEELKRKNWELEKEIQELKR

[15] = target: T15, 4H3843-bH
T15 chain: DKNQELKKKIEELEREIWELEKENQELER

[16] = target: T16, 4H2697-bH
T16 chain: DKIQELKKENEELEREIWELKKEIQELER

[17] = target: T17, 4H338-bH
T17 chain: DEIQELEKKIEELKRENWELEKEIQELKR

[18] = target: T18, 4H2667-bH
T18 chain: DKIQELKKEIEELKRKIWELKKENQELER

[19] = target: T19, 4H3606-bH
T19 chain: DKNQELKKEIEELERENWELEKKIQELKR

[20] = target: T20, 4H607-bH
T20 chain: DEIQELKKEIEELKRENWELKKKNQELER

[21] = target: T21, 4H908-bH
T21 chain: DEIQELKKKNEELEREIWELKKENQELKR

[22] = target: T22, 4H2729-bH
T22 chain: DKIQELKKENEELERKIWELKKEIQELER

[23] = target: T23, 4H454-bH
T23 chain: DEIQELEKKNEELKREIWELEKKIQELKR

[24] = target: T24, 4H687-bH
T24 chain: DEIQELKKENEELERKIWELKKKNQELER

[25] = target: T25, 4H3843-bN
T25 chain: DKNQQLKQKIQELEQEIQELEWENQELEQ

[26] = target: T26, 4H3782-bH
T26 chain: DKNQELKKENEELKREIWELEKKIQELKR

[27] = target: T27, O4-bN
T27 chain: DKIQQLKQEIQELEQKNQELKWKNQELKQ

[28] = target: T28, 4H797-bH
T28 chain: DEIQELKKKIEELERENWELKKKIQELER

[29] = target: T29, 4H3427-bH
T29 chain: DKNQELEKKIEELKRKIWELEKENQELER

[30] = target: T30, 4H331-bH
T30 chain: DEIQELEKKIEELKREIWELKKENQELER

[31] = target: T31, 4H3855-bH
T31 chain: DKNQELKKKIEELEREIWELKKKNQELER

[32] = target: T32, 4H883-bH
T32 chain: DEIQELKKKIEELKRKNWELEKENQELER

Binder: DKIQELKKEIEELKRKIWELKKENQELER [4H2667-bH]
- interaction score [1]: -0.859
- interaction score [2]: -2.94
- interaction score [3]: -0.454
- interaction score [4]: -0.166
- interaction score [5]: 0.0192
- interaction score [6]: -2.64
- interaction score [7]: 0.789
- interaction score [8]: -0.933
- interaction score [9]: 0.612
- interaction score [10]: 1.01
- interaction score [11]: 0.0882
- interaction score [12]: -0.422
- interaction score [13]: -0.302
- interaction score [14]: 0.226
- interaction score [15]: 1.84
- interaction score [16]: 1.31
- interaction score [17]: 1.42
- interaction score [18]: 0.801
- interaction score [19]: 1.83
- interaction score [20]: 0.145
- interaction score [21]: -1.3
- interaction score [22]: 1.75
- interaction score [23]: 0.0385
- interaction score [24]: -0.168
- interaction score [25]: 1.56
- interaction score [26]: -0.0673
- interaction score [27]: -0.678
- interaction score [28]: -0.539
- interaction score [29]: 1.38
- interaction score [30]: 1.71
- interaction score [31]: 0.693
- interaction score [32]: 0.434
